Key:
[1] = biological target: endoxylanase M1 from Trichoderma viride (family 11), Megazyme (Trichoderma viride); assay: cell-based or functional assay
[2] = biological target: endoxylanase M4 from Aspergillus niger (family 11), Megazyme (Aspergillus niger); assay: cell-based or functional assay
[3] = biological target: endoxylanase M6 from a rumen microorganism culture filtrate, Megazyme; assay: cell-based or functional assay
[4] = biological target: endoxylanase from Bacillus subtilis (family 11), NV Puratos (Bacillus subtilis) (UniProt P18429); assay: cell-based or functional assay
[5] = biological target: mixture of ‘TAXI’-like endoxylanase inhibitors obtained after the affinity purification step of example 3, immobilised on NHS-activated Sepharose 4 Fast Flow; assay: affinity chromatography on immobilised ‘TAXI’-like endoxylanase inhibitors, activity by Xylazyme-AX method

Sequence of endoxylanase M4 from Aspergillus niger (family 11), Megazyme (Aspergillus niger) (P55329 28-211): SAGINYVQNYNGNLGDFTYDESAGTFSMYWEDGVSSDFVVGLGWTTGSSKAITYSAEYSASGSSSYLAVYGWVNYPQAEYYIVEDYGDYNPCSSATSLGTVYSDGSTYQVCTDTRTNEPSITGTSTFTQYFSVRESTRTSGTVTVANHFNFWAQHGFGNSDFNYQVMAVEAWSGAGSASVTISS
Sequence of endoxylanase of A. niger, var. awamori (Quest International enzyme preparation) (P55328 28-211): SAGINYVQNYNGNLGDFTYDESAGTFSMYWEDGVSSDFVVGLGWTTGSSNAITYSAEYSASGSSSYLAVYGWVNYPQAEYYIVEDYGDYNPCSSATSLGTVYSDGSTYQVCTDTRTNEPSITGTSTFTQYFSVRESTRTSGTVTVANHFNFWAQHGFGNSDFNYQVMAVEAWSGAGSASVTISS

maximum of inhibition of endoxylanase activity (Xylazyme-AX method) [1] | maximum of inhibition of endoxylanase activity (Xylazyme-AX method) [3] | maximum of inhibition of endoxylanase activity (Xylazyme-AX method) [4] | endoxylanase inhibition activity of periplasmic protein fraction (Xylazyme-AX method) [2] | endoxylanase inhibition activity of periplasmic protein fraction (Xylazyme-AX method) [4] | Substance | further results
> 90% | 8% | 77% |  |  | TAXI II (Triticum aestivum L. endoxylanase inhibitor II) | quantity of inhibitor that reduces the endoxylanase activity with 50% (Xylazyme-AX method) [1]: 0.07 µg; maximum of inhibition as a function of inhibitor quantity [4]: 80%; quantity of inhibitor that reduces the endoxylanase activity with 50% (Xylazyme-AX method) [4]: 0.28 µg
 |  |  | 96% | 81% | recombinant TAXI protein expressed by the pHOS31-TAXI plasmid | 

More lines, now with the values behind:

Substance | maximum of inhibition of endoxylanase activity (Xylazyme-AX method) [1] | maximum of inhibition of endoxylanase activity (Xylazyme-AX method) [3] | maximum of inhibition of endoxylanase activity (Xylazyme-AX method) [4] | endoxylanase inhibition activity of periplasmic protein fraction (Xylazyme-AX method) [2] | endoxylanase inhibition activity of periplasmic protein fraction (Xylazyme-AX method) [4] | further results
HvXI (Hordeum vulgare L. endoxylanase inhibitor) | > 95% | 15% | 92% |  |  | level of inhibitor that reduces the endoxylanase activity with 50% (Xylazyme-AX method) [1]: 0.08 µg; level of inhibitor that reduces the endoxylanase activity with 50% (Xylazyme-AX method) [2]: 0.13 µg; maximum of inhibition of endoxylanase activity (Xylazyme-AX method) [2]: > 95%; level of inhibitor that reduces the endoxylanase activity with 50% (Xylazyme-AX method) [4]: 0.27 µg
MBP (maltose binding protein)-TAXI fusion protein expressed by the pMAL-p2X-TAXI plasmid |  |  |  | 99% | 88% | 
endoxylanase of A. niger, var. awamori (Quest International enzyme preparation) |  |  |  |  |  | endoxylanase activity retained on the affinity column [5]: 94%

Reference: patent publication US20030195151A1
